The results in this text go back to US20160317649A1, “EPITOPES OF HERPES SIMPLEX VIRUS” (priority 2007, published 2016).

Like-named read-outs stand apart in the source and are kept apart here.

Common to all, as to details: modification not given
Experiment [1] addresses HLA DRB1*0701 (human).
The target in experiment [2] is HLA DRB1*0101 (human).
Experiment [3] addresses HLA DRB1*0101 (human). The source holds these as a separate data set.
The target in experiment [4] is HLA DRB1*0701 (human). This is another data set of the same source.
The target of a further experiment is HLA DRB1*1302 (human).
For experiment [5], the target named is HLA DRB1*0101 (human). This is another data set of the same source.

In general, IC50 refers to the concentration that gives 50% inhibition. A low value points to higher potency. AYQQGVTVDSIG [24.2]: the IC50 with HLA DRB1*0701 (human) [1] is 2720 nM; with HLA DRB1*0101 (human) [2] it was 471 nM. In turn, HAPAAPANPGLI [34.1] registered an IC50 with HLA DRB1*0101 (human) [3] of 3550 nM. As to YQQGVTVDSIGM [24.3], the IC50 with HLA DRB1*0701 (human) [4] came out at 389 nM. As to APAAPANPGLII [34.2], the figures for the IC50 with HLA DRB1*1302 (human) and in the experiment with HLA DRB1*0101 (human) [5] were 642 nM and 1270 nM, respectively.
